Patent US20080207488A1, “Method for Detecting Peptides Comprising a Cross-B Structure” (priority 2005, published 2008)
One block for each molecule: values may come before it.

What was measured:
Balb/c mice = assay: Immunization of Balb/c mice with ovalbumin and amyloid-like ovalbumin; assay type: in vivo; conditions: without adjuvant
Method: Eight to ten weeks old female Balb/c mice are immunized with OVA according to two immunization regimes (Central Animal Laboratories, Utrecht University, The Netherlands). Pre-immune serum was collected prior to the immunizations. In one regime two groups of five mice were subcutaneously injected five consecutive days per week, for three consecutive weeks. Doses comprised 10 μg native OVA or heat-denatured OVA for each injection. Alternatively, according to the second protocol, three groups of five mice were injected once intraperitoneally with doses comprising 5 μg nOVA, 5 μg OVA or 5 μg native OVA mixed 1:1 with complete Freund's adjuvant (CFA). Each week, blood was taken. After three weeks, a second dose was given. Incomplete Freund's adjuvant (IFA) was used instead of CFA. Blood was taken after one week after the start of the immunization. Antibody titers in sera were determined and sera were analyzed for the presence of cross-β structure conformation specific antibodies. For this purpose, nOVA was coated onto wells of 96-wells ELISA plates and incubated with dilution series of sera. Sera of the groups of five mice were pooled prior to the analyses. Plates were washed and subsequently incubated with peroxidase-conjugated rabbit anti-mouse immunoglobulins (RAMPO, P0260, DAKOCytomation, Glostrup, Denmark). Plates were subsequently developed with tetramethylbenzidine (TMB) substrate. […]

[1] = molecular target: T1, human fibronectin finger 4,5 (Fn F4,5) fragment (Homo sapiens, UniProt P02751); assay: ELISA, binding of fibronectin F4,5 to coated (mis)folded proteins; conditions: coated protein, FIG. 7D-H
T1 construct: human fibronectin finger 4,5 (Fn F4,5) fragment; made in house; host or cells: HEK293E cells, transient transfection, protein purified from the medium
Method: The plates were blocked using Blocking reagent (Roche 1112589). A dilution series of the protein of interest was applied to the coated proteins and wells were subsequently washed using TBS-T (50 mM Tris pH 7.3, 150 mM NaCl and 0.1% Tween20). Bound protein is detected by the FLAG-tag using 1:3000 anti-FLAG-HRP (Sigma A-8592) in PBS-T, or by 1:1000 Ni-NTA-HRP (Qiagen 34530) in PBS-T. The HRP reaction Is performed using the TMB substrate (Biosource 4501103 or Tebu Bio 101TMB100-500), stopped using 10% H2SO4 and absorbance was measured at 450 nm.

tPA = molecular target: T2, tPA (Homo sapiens, UniProt P00750); assay: Plasminogen-activation assay (tPA-mediated Plg to Pls, S-2251); assay type: biochemical; conditions: 100 μg ml^−1 protein
T2 construct: purchased Boehringer-Ingelheim (Actilyse, Alteplase)
Method: Plasmin (Pls) activity was assayed as described^7. Peptides and proteins that were tested for their stimulatory ability were regularly used at 100 μg ml^−1. […] Chromogenic substrate S-2251 (Chromogenix, Instrumentation Laboratory SpA, Milano, Italy) was used to measure Pls activity. Conversion of zymogen factor XII (#233490, Calbiochem, EMD Biosciences, Inc., San Diego, Calif.) to proteolytically active factor XII (factor XIIa) was assayed by measurement of the conversion of chromogenic substrate Chromozym-PK (Roche Diagnostics, Almere, The Netherlands) by kallikrein. Chromozym-PK was used at a concentration of 0.3 mM. Factor XII, human plasma prekallikrein (#529583, Calbiochem) and human plasma cofactor high-molecular weight kininogen (#422686, Calbiochem) were used at concentrations of 1 μg ml^−1. […] Assays were performed using microtiter plates (Costar, Cambridge, Mass., USA). Peptides and proteins were tested for their ability to activate factor XII. […] The conversion of Chromozym-PK was recorded kinetically at 37° C. for at least 60 minutes. […] With S-2222, activation of factor XII in plasma was measured, using 60% v/v plasma, diluted with substrate and H2O with or without potential cofactor. Furthermore, auto-activation of factor XII was measured by incubating 53 μg ml^−1 purified factor XII in 50 mM Tris-HCl buffer pH 7.5 with 1 mM EDTA and 0.001% v/v Triton-X100, with S-2222 and H2O with or without potential cofactor.
Formulated protein therapeutics were obtained from the local hospital pharmacy and were used as supplied by the manufacturers. […] Enhancement in fluorescence of ThT and Congo red was measured with all formulated protein therapeutics. […]
To prepare structurally altered ovalbumin (OVA) with amyloid cross-β structure conformation, purified OVA (Sigma, A-7641, lot 071k7094) was heated to 85° C. […] Native OVA (nOVA) and heat-denatured OVA (dOVA) were tested in the ThT fluorescence assay and in the Plg-activation assay. In the fluorescence assay and in the Plg-activation assay, 25 and 100 μg ml^−1 nOVA and dOVA were tested, respectively. […]

[2] = ThT fluorescence of LPS-protein mixtures; assay type: physicochemical
Method: (§1) Fluorescence of ThT-protein/peptide adducts was measured as follows. […] Fluorescence was measured at 485 nm upon excitation at 435 nm. Background signals from buffer, buffer with ThT and protein/peptide solution without ThT were subtracted from corresponding measurements with protein solution incubated with ThT. […] Fluorescence was measured in triplicate on a Hitachi F-4500 fluorescence spectrophotometer (Ltd., Tokyo, Japan).
Subsequently, the ability to enhance ThT fluorescence was determined with 40× diluted solution, as described above. […]

[3] = ThT fluorescence of CpG-ODN-protein mixtures; assay type: physicochemical; conditions: for increased ThT fluorescence: 1 mg ml^−1 protein exposed to 21.4 μg ml^−1 CPG-ODN (FIG. 4F); for increase in ThT fluorescence: 1 mg ml^−1 protein, 30 min. at room temperature (FIG. 4D, E)
Method: as §1
Enhancement of ThT fluorescence was measured similarly as described above. […]

[4] = system: anti-β2GPI auto-antibodies; assay: Interference with binding of anti-β2GPI autoantibodies to immobilized β2GPI; design: species or system human; conditions: antibodies from Anti-phospholipid syndrome patients
Method: When plasma derived β2GPI is coated onto hydrophilic ELISA plates, anti-β2GPI auto-antibodies isolated from plasma of antiphospholipid syndrome auto-immune patients can bind^14. To study the influence of co-incubations of the coated β2GPI with the antibodies together with plasma β2GPI or recombinant β2GPI, concentration series of β2GPI were added to the patient antibodies. Subsequently, binding of the antibodies to coated β2GPI was determined.

[5] = ThT fluorescence of β2GPI with or without CL vesicles or DXS500k; assay type: physicochemical
Method: ThT fluorescence of β2GPI was measured as follows. […] CL vesicles were prepared according to an established procedure. Briefly, CL was dried under a stream of nitrogen. The lipids were resuspended to a concentration of 10 mg ml^−1 in 25 mM Tris-HCl, pH 7.3, 150 mM NaCl by vigorous agitation, using a vortex. In the ThT fluorescence assay, fluorescence of β2GPI in buffer, of CL or DXS500k in buffer, of buffer and ThT alone, and of β2GPI-CL adducts and β2GPI-DXS500k adducts, with or without ThT, was recorded as described above (section ThT fluorescence). In addition, TEM images were recorded with CL, β2GPI from human plasma, with or without CL, and with recombinant β2GPI, as described^1.

[6] = 1 mg ml^−1 protein exposed to 600 μg ml^−1 LPS (FIG. 4C)

T2 sequence (P00750 36-562): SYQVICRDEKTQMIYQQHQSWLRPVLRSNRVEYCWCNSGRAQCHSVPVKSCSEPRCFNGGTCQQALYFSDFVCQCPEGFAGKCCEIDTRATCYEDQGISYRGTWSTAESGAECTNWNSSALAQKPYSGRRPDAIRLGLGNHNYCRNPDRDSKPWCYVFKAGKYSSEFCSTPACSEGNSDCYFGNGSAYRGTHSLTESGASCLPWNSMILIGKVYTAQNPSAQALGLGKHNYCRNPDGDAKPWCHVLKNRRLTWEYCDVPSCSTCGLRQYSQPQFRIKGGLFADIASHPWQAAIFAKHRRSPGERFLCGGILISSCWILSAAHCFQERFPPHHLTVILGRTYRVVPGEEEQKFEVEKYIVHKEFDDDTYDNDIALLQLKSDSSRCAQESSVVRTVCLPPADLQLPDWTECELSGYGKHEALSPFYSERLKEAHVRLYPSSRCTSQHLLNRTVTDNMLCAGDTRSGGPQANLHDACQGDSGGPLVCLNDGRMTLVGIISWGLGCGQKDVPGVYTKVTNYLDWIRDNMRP
T1 sequence (P02751 182-276 limits assumed): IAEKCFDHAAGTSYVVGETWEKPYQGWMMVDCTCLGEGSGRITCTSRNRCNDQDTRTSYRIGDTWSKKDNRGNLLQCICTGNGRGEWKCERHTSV

B1: nOVA: native chicken ovalbumin (protein)
chain: GSIGAASMEFCFDVFKELKVHHANENIFYCPIAIMSALAMVYLGAKDSTRTQINKVVRFDKLPGFGDSIEAQCGTSVNVHSSLRDILNQITKPNDVYSFSLASRLYAEERYPILPEYLQCVKELYRGGLEPINFQTAADQARELINSWVESQTNGIIRNVLQPSSVDSQTAMVLVNAIVFKGLWEKAFKDEDTQAMPFRVTEQESKPVQMMYQIGLFRVASMASEKMKILELPFASGTMSMLVLLPDEVSGLEQLESIINFEKLTEWTSSNVMEERKIKVYLPRMKMEEKYNLTSVLMAMGITDVFSSSANLSGISSAESLKISQAVHAAHAEINEAGREVVGSAEAGVDAASVSEEFRADHPFLFCIKHIATNAVLFFGRCVSP
anti-nOVA antibody titers in pooled sera (Balb/c mice): Titers were also obtained

affinity of fibronectin F4,5 (detection anti-FLAG HRP) [1]: acted as its native control
B2: reduced and alkylated OVA: reduced and alkylated ovalbumin (protein)
chain: B1 chain

B3: endostatin: protein therapeutic endostatin (EntreMed, Inc.) (protein)
chain: HSHRDFQPVLHLVALNSPLSGGMRGIRGADFQCFQQARAVGLAGTFRAFLSSRLQDLYSIVRRADRAAVPIVNLKDELLFPSWEALFSGSEGPLKPGARIFSFDGKDVLRHPTWPQKSVWHGSDPNGRRLTESYCETWRTEAPSATGQASSLLGGRLLGQSAASCHHAYIVLCIENSFMTASK
stimulation of tPA-mediated conversion of Plg to Pls (tPA): absence of tPA activating properties
ThT fluorescence enhancement ([2]; 200 μg ml^−1 LPS (FIG. 4D, E)): approximately 8 times
ThT fluorescence enhancement ([2]; 400 μg ml^−1 LPS (FIG. 4D, E)): ~20 times
ThT fluorescence enhancement ([2]; 600 μg ml^−1 LPS (FIG. 4D, E)): ~26 times
ThT fluorescence enhancement [2, 6]: approximately 10 times
increased ThT fluorescence [3]: approximately 10 factor
increase in ThT fluorescence ([3]; 10.4 μg ml^−1 CPG-ODN): ~39 times
increase in ThT fluorescence ([3]; 21.7 μg ml^−1 CPG-ODN): ~56 times

inhibition of binding of anti-β2GPI auto-antibodies to immobilized β2GPI [4]: efficiently inhibits binding
B4: recombinant β2GPI: recombinant human β2-glycoprotein I made using insect cells (protein)
chain: GRTCPKPDDLPFSTVVPLKTFYEPGEEITYSCKPGYVSRGGMRKFICPLTGLWPINTLKCTPRVCPFAGILENGAVRYTTFEYPNTISFSCNTGFYLNGADSAKCTEEGKWSPELPVCAPIICPPPSIPTFATLRVYKPSAGNNSLYRDTAVFECLPQHAMFGNDTITCTTHGNWTKLPECREVKCPFPSRPDNGFVNYPAKPTLYYKDKATFGCHDGYSLDGPEEIECTKLGNWSAMPSCKASCKVPVKKATVVYQGERVKIQEKFKNGMLHGDKVSFFCKNKEKKCSYTEDAQCIDGTIEVPKCFKEHSSLAFWKTDASDVKPC
stimulation of tPA-mediated conversion of Plg to Pls (tPA): stimulate tPA-mediated conversion of Plg to Pls
ThT fluorescence after exposure to CL vesicles or DXS ([5]; 25 μg ml^−1 β2GPI, 100 μM CL vesicles or 250 μg ml^−1 DXS): increased fluorescence of ThT
ThT fluorescence signal of β2GPI preparation ([5]; without CL or DXS500k): higher ThT fluorescence signal
ThT fluorescence enhancement [2, 6]: ~4 times
increased ThT fluorescence [3]: approximately 5 factor
